The results in this text go back to US20100166764A1 (Eli Lilly, published 2010).

Sequences and labels used below:
B1: Mab C12 (antibody, V domains shown)
VH: QLQLQESGPGLVKPSETLSLTCTVSGFSLRKVGSSVSWIRQPPGKGLEWIGHIYWDDDKRLNPSLRNRVTISVDTSKNQFSLKLSSVTAADTAVYYCARRAITTVIGGGTFDLWGQGTLVTVSS
VL: DIQMTQSPSSLSASVGDRVTITCSASSSISYMHWYQQKPGKAPKLLIYDTSKLARGVPSRFSGSGSGTDFTLTISSLQPEDFATYYCQQWYLNPLTFGGGTKVEIKR
B2: C12 Fab with the Asn residue in CDRL3 replaced with glycine (Fab, V domains shown)
VH: QLQLQESGPGLVKPSETLSLTCTVSGFSLRKVGSSVSWIRQPPGKGLEWIGHIYWDDDKRLNPSLRNRVTISVDTSKNQFSLKLSSVTAADTAVYYCARRAITTVIGGGTFDLWGQGTLVTVSS
VL: DIQMTQSPSSLSASVGDRVTITCSASSSISYMHWYQQKPGKAPKLLIYDTSKLARGVPSRFSGSGSGTDFTLTISSLQPEDFATYYCQQWYLGPLTFGGGTKVEIKR
notes: Periprep Fab
B3: C12 Fab with the Asn residue in CDRL3 replaced with aspartic acid (Fab, V domains shown)
VH: QLQLQESGPGLVKPSETLSLTCTVSGFSLRKVGSSVSWIRQPPGKGLEWIGHIYWDDDKRLNPSLRNRVTISVDTSKNQFSLKLSSVTAADTAVYYCARRAITTVIGGGTFDLWGQGTLVTVSS
VL: DIQMTQSPSSLSASVGDRVTITCSASSSISYMHWYQQKPGKAPKLLIYDTSKLARGVPSRFSGSGSGTDFTLTISSLQPEDFATYYCQQWYLDPLTFGGGTKVEIKR
notes: Periprep Fab
B4: C12 Fab with the Asn residue in CDRL3 replaced with tyrosine (Fab, V domains shown)
VH: QLQLQESGPGLVKPSETLSLTCTVSGFSLRKVGSSVSWIRQPPGKGLEWIGHIYWDDDKRLNPSLRNRVTISVDTSKNQFSLKLSSVTAADTAVYYCARRAITTVIGGGTFDLWGQGTLVTVSS
VL: DIQMTQSPSSLSASVGDRVTITCSASSSISYMHWYQQKPGKAPKLLIYDTSKLARGVPSRFSGSGSGTDFTLTISSLQPEDFATYYCQQWYLYPLTFGGGTKVEIKR
notes: Periprep Fab
B5: C12 Fab with the Asn residue in CDRL3 replaced with lysine (Fab, V domains shown)
VH: QLQLQESGPGLVKPSETLSLTCTVSGFSLRKVGSSVSWIRQPPGKGLEWIGHIYWDDDKRLNPSLRNRVTISVDTSKNQFSLKLSSVTAADTAVYYCARRAITTVIGGGTFDLWGQGTLVTVSS
VL: DIQMTQSPSSLSASVGDRVTITCSASSSISYMHWYQQKPGKAPKLLIYDTSKLARGVPSRFSGSGSGTDFTLTISSLQPEDFATYYCQQWYLKPLTFGGGTKVEIKR
notes: Periprep Fab
B6: C12 Fab with the Asn residue in CDRL3 replaced with glutamic acid (Fab, V domains shown)
VH: QLQLQESGPGLVKPSETLSLTCTVSGFSLRKVGSSVSWIRQPPGKGLEWIGHIYWDDDKRLNPSLRNRVTISVDTSKNQFSLKLSSVTAADTAVYYCARRAITTVIGGGTFDLWGQGTLVTVSS
VL: DIQMTQSPSSLSASVGDRVTITCSASSSISYMHWYQQKPGKAPKLLIYDTSKLARGVPSRFSGSGSGTDFTLTISSLQPEDFATYYCQQWYLEPLTFGGGTKVEIKR
notes: Periprep Fab
B7: C12 Fab with the Asn residue in CDRL3 replaced with leucine (Fab, V domains shown)
VH: QLQLQESGPGLVKPSETLSLTCTVSGFSLRKVGSSVSWIRQPPGKGLEWIGHIYWDDDKRLNPSLRNRVTISVDTSKNQFSLKLSSVTAADTAVYYCARRAITTVIGGGTFDLWGQGTLVTVSS
VL: DIQMTQSPSSLSASVGDRVTITCSASSSISYMHWYQQKPGKAPKLLIYDTSKLARGVPSRFSGSGSGTDFTLTISSLQPEDFATYYCQQWYLLPLTFGGGTKVEIKR
notes: Periprep Fab
B8: C12 Fab with the Asn residue in CDRL3 replaced with valine (Fab, V domains shown)
VH: QLQLQESGPGLVKPSETLSLTCTVSGFSLRKVGSSVSWIRQPPGKGLEWIGHIYWDDDKRLNPSLRNRVTISVDTSKNQFSLKLSSVTAADTAVYYCARRAITTVIGGGTFDLWGQGTLVTVSS
VL: DIQMTQSPSSLSASVGDRVTITCSASSSISYMHWYQQKPGKAPKLLIYDTSKLARGVPSRFSGSGSGTDFTLTISSLQPEDFATYYCQQWYLVPLTFGGGTKVEIKR
notes: Periprep Fab
B9: C12 Fab with the Asn residue in CDRL3 replaced with alanine (Fab, V domains shown)
VH: QLQLQESGPGLVKPSETLSLTCTVSGFSLRKVGSSVSWIRQPPGKGLEWIGHIYWDDDKRLNPSLRNRVTISVDTSKNQFSLKLSSVTAADTAVYYCARRAITTVIGGGTFDLWGQGTLVTVSS
VL: DIQMTQSPSSLSASVGDRVTITCSASSSISYMHWYQQKPGKAPKLLIYDTSKLARGVPSRFSGSGSGTDFTLTISSLQPEDFATYYCQQWYLAPLTFGGGTKVEIKR
notes: Periprep Fab
B10: C12 Fab with the Asn residue in CDRL3 replaced with phenylalanine (Fab, V domains shown)
VH: QLQLQESGPGLVKPSETLSLTCTVSGFSLRKVGSSVSWIRQPPGKGLEWIGHIYWDDDKRLNPSLRNRVTISVDTSKNQFSLKLSSVTAADTAVYYCARRAITTVIGGGTFDLWGQGTLVTVSS
VL: DIQMTQSPSSLSASVGDRVTITCSASSSISYMHWYQQKPGKAPKLLIYDTSKLARGVPSRFSGSGSGTDFTLTISSLQPEDFATYYCQQWYLFPLTFGGGTKVEIKR
notes: Periprep Fab
B11: C12 Fab with the Asn residue in CDRL3 replaced with glutamine (Fab, V domains shown)
VH: QLQLQESGPGLVKPSETLSLTCTVSGFSLRKVGSSVSWIRQPPGKGLEWIGHIYWDDDKRLNPSLRNRVTISVDTSKNQFSLKLSSVTAADTAVYYCARRAITTVIGGGTFDLWGQGTLVTVSS
VL: DIQMTQSPSSLSASVGDRVTITCSASSSISYMHWYQQKPGKAPKLLIYDTSKLARGVPSRFSGSGSGTDFTLTISSLQPEDFATYYCQQWYLQPLTFGGGTKVEIKR
notes: Periprep Fab
B12: C12 Fab with the Asn residue in CDRL3 replaced with cysteine (Fab, V domains shown)
VH: QLQLQESGPGLVKPSETLSLTCTVSGFSLRKVGSSVSWIRQPPGKGLEWIGHIYWDDDKRLNPSLRNRVTISVDTSKNQFSLKLSSVTAADTAVYYCARRAITTVIGGGTFDLWGQGTLVTVSS
VL: DIQMTQSPSSLSASVGDRVTITCSASSSISYMHWYQQKPGKAPKLLIYDTSKLARGVPSRFSGSGSGTDFTLTISSLQPEDFATYYCQQWYLCPLTFGGGTKVEIKR
notes: Periprep Fab
B13: C12 Fab with the Asn residue in CDRL3 replaced with threonine (Fab, V domains shown)
VH: QLQLQESGPGLVKPSETLSLTCTVSGFSLRKVGSSVSWIRQPPGKGLEWIGHIYWDDDKRLNPSLRNRVTISVDTSKNQFSLKLSSVTAADTAVYYCARRAITTVIGGGTFDLWGQGTLVTVSS
VL: DIQMTQSPSSLSASVGDRVTITCSASSSISYMHWYQQKPGKAPKLLIYDTSKLARGVPSRFSGSGSGTDFTLTISSLQPEDFATYYCQQWYLTPLTFGGGTKVEIKR
notes: Periprep Fab
B14: C12 Fab with the Asn residue in CDRL3 replaced with isoleucine (Fab, V domains shown)
VH: QLQLQESGPGLVKPSETLSLTCTVSGFSLRKVGSSVSWIRQPPGKGLEWIGHIYWDDDKRLNPSLRNRVTISVDTSKNQFSLKLSSVTAADTAVYYCARRAITTVIGGGTFDLWGQGTLVTVSS
VL: DIQMTQSPSSLSASVGDRVTITCSASSSISYMHWYQQKPGKAPKLLIYDTSKLARGVPSRFSGSGSGTDFTLTISSLQPEDFATYYCQQWYLIPLTFGGGTKVEIKR
notes: Periprep Fab
B15: C12 Fab with the Asn residue in CDRL3 replaced with serine (Fab, V domains shown)
VH: QLQLQESGPGLVKPSETLSLTCTVSGFSLRKVGSSVSWIRQPPGKGLEWIGHIYWDDDKRLNPSLRNRVTISVDTSKNQFSLKLSSVTAADTAVYYCARRAITTVIGGGTFDLWGQGTLVTVSS
VL: DIQMTQSPSSLSASVGDRVTITCSASSSISYMHWYQQKPGKAPKLLIYDTSKLARGVPSRFSGSGSGTDFTLTISSLQPEDFATYYCQQWYLSPLTFGGGTKVEIKR
notes: Periprep Fab
B16: C12 Fab with the Asn residue in CDRL3 replaced with methionine (Fab, V domains shown)
VH: QLQLQESGPGLVKPSETLSLTCTVSGFSLRKVGSSVSWIRQPPGKGLEWIGHIYWDDDKRLNPSLRNRVTISVDTSKNQFSLKLSSVTAADTAVYYCARRAITTVIGGGTFDLWGQGTLVTVSS
VL: DIQMTQSPSSLSASVGDRVTITCSASSSISYMHWYQQKPGKAPKLLIYDTSKLARGVPSRFSGSGSGTDFTLTISSLQPEDFATYYCQQWYLMPLTFGGGTKVEIKR
notes: Periprep Fab
B17: C12 Fab with the Asn residue in CDRL3 replaced with proline (Fab, V domains shown)
VH: QLQLQESGPGLVKPSETLSLTCTVSGFSLRKVGSSVSWIRQPPGKGLEWIGHIYWDDDKRLNPSLRNRVTISVDTSKNQFSLKLSSVTAADTAVYYCARRAITTVIGGGTFDLWGQGTLVTVSS
VL: DIQMTQSPSSLSASVGDRVTITCSASSSISYMHWYQQKPGKAPKLLIYDTSKLARGVPSRFSGSGSGTDFTLTISSLQPEDFATYYCQQWYLPPLTFGGGTKVEIKR
notes: Periprep Fab
B18: C12 Fab with the Asn residue in CDRL3 replaced with tryptophan (Fab, V domains shown)
VH: QLQLQESGPGLVKPSETLSLTCTVSGFSLRKVGSSVSWIRQPPGKGLEWIGHIYWDDDKRLNPSLRNRVTISVDTSKNQFSLKLSSVTAADTAVYYCARRAITTVIGGGTFDLWGQGTLVTVSS
VL: DIQMTQSPSSLSASVGDRVTITCSASSSISYMHWYQQKPGKAPKLLIYDTSKLARGVPSRFSGSGSGTDFTLTISSLQPEDFATYYCQQWYLWPLTFGGGTKVEIKR
notes: Periprep Fab

The target in one test is T1, mature myostatin (human, murine, rat, chicken, turkey, …, UniProt O08689 268-376 (mouse entry)).
T1 sequence: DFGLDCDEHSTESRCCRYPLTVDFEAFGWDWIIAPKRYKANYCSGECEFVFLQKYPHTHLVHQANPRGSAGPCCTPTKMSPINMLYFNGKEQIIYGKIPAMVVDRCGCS
Kind of test: cell-based or functional assay.
As to B1, the “IC50 in the myostatin/SBE reporter assay (luciferase, HEK293 EBNA cells)” value is ~9.59 nM.

The target of the next test is T1, mature myostatin. Nature of the test: ELISA, myostatin coated, periprep Fab titrated, anti-human-kappa-AP. The protocol:
ELISA plates are coated with myostatin diluted to 4 ug/ml in carbonate buffer (50 mM NaHCO₃ pH 8.3) and 50 μL added per well. Plates are covered with sealing tape and incubate overnight at 4° C. Thereafter, plates (Greiner U-bottom plates Cat #650061) are washed three times with PBS-T (0.1% Tween-20) using an automatic plate washer. 200 μL of blocking buffer (PBS+1% BSA+0.1% Tween-20) is added to every well and incubated at room temperature for one hour. Plates are washed and 50 μl of sample added per well. Samples are composed of periprep Fabs diluted in PBST/BSA starting at a 1:3 dilution and then serially diluted in half-log steps. Plates are washed and 50 μL of secondary antibody solution (1:2000 goat anti-human-kappa-AP Southern Biotech Cat # 2060-04 in PBST/BSA) is added to every well. Following an additional wash step, 100 μL of AP substrate is added per well and incubates at room temperature for about 10 minutes. The absorbance or OD at 560 nm is read. C12 or 510C2 is included on each ELISA plate as an affinity reference standard. The concentration of Fabs is determined by a quantitative ELISA using an anti-Fd antibody (Sheep anti-Fd Biodesign) to capture protein and goat anti-human-kappa-AP (Southern Biotech) to detect. A purified Fab standard is run on each plate to generate a standard curve for the concentration determinations.
On the technique in general: An ELISA detects its analyte on a solid surface through an enzyme-linked reagent.
For the molecule B2, the binding result is “binds”.
The same measure, in the same setting: with B3 the entry was “binds”; with B4, “binds”.
With B5, the binding result is given as “binds”.
Same read-out and setting: with B6 the entry was “binds”; with B7, “binds”.
The same measure, in the same setting: with B8 the entry was “binds”.
On the same count and under the same terms, next, B9: “binds”; B10: “binds”; B11: “binds”.
On to B12, for which the binding result is on record as “binds”.
Consider B13, for which the binding result was “binds”.
As to B14, the binding result was “binds”.
Take B15: the binding result is recorded as “binds”.
For the molecule B16, the binding result was “binds”.
For the molecule B17, the binding result was “binds”.
On the same count and under the same terms, next, B18: “binds”.
